Experimental data as given in paper PMC3783164.

Biological target: SP1 (rhSP1) (Homo sapiens, UniProt P08047 1-785)
Assay: EMSA

Chain of SP1 (rhSP1) (P08047 whole entry): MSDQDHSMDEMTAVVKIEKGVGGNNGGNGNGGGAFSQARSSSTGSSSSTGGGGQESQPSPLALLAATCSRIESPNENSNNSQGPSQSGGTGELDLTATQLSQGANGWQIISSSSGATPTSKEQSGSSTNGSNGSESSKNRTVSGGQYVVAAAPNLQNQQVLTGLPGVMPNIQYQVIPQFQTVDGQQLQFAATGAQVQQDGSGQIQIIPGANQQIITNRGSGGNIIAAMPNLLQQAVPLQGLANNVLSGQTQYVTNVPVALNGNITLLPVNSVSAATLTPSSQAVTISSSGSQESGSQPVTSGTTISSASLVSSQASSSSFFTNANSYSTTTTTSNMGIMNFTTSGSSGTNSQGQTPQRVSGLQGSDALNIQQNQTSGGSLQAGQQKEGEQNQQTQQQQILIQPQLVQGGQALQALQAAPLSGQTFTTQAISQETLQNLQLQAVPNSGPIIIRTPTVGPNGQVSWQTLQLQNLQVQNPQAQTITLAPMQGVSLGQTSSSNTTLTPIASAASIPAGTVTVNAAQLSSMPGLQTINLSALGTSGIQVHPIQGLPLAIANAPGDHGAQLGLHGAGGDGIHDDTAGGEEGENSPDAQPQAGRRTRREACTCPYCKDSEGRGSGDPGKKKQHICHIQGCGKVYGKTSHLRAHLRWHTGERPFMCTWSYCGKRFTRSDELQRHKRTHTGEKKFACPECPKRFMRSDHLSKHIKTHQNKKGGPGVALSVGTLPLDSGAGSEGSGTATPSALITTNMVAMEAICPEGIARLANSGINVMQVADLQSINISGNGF

Binder	binding result
MRE1.3 (dsDNA) DNA 1: GCAGCAGCCTCCTCCCCCCGCACGGTGTGAGCGCCCGACGCGGCCGAGGCGGCCGGAGTCCCGAG DNA 2: CTCGGGACTCCGGCCGCCTCGGCCGCGTCGGGCGCTCACACCGTGCGGGGGGAGGAGGCTGCTGC	binds
MRE1.3a (25 bp) (dsDNA) DNA 1: GCAGCAGCCTCCTCCCCCCGCACGG DNA 2: CCGTGCGGGGGGAGGAGGCTGCTGC	binds
